From publication PMC6607583

How the values were obtained:
[1] = biological target: HIV-1 NL4-3 Nef-FTS Mut2 (EEEE-PxxP to AAAA-AxxA) (HIV-1 (NL4-3 strain)) (UniProt P03406); experiment: pull-down; HeLa cells transiently transfected with FTS-tagged bait, cross-linked with 1 mM DSP (4 °C, 6 h), lysed in 50 mM Tris-HCl pH 7.4, 300 mM NaCl, 5 mM EDTA, 0.5% NP-40; bait isolated on Strep-Tactin resin overnight at 4 °C; endogenous prey detected by immunoblotting
[2] = biological target: HIV-1 NL4-3 Nef-FTS Mut1 (WL-EEEE to AA-AAAA) (HIV-1 (NL4-3 strain)) (UniProt P03406); experiment: as above

For “autophagy-related 9A (ATG9A) protein, endogenous in HeLa (from UniProt Q7Z3C6 1-839) (natural protein)”, the Nef-ATG9A pulldown relative to WT Nef [1] was 10 % of WT Nef and the Nef-ATG9A pulldown relative to WT Nef [2] was 10 % of WT Nef.
